The source of these data is patent publication US20200032346.

The target in series [1] is T1, peptide 7 (NSYALAVLSNYDANKTGLKEL).
T1 chain: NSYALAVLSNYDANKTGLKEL

Series [2] addresses T2, peptide 3 (FLKTIQEVAGYVLIALNTVER).
T2 chain: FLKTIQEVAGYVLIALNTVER

Series [3] concerns the target T3, peptide 5 (NLQIIRGNMYYENSYALAVLS).
T3 chain: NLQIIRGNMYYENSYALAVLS

Series [4] concerns the target T4, peptide 9 (PPLMLYNPTTYQMDVNPEGKY).
T4 chain: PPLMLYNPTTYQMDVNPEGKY

Series [5] has as its target T5, mutant peptide 3 (FLKTIQEVAGAVLIALNTVER).
T5 chain: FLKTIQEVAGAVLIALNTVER

Series [6] has as its target T6, peptide 16 (VCHLCHPNCTYGCTGPGLEGC).
T6 chain: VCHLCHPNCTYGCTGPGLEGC

The target of series [7] is HisTAG-EGFR^aa1-650, P00533.
Series [8] deals with T7, peptide 1 (EVVLGNLEITYVQRNYDLSFL).
T7 chain: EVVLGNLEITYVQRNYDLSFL

The target in series [9] is T8, peptide 2 (NLEITYVQRNYDLSFLKTIQE).
T8 chain: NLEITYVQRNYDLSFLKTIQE

In series [10] the target is T9, peptide 13 (VIISGNKNLCYANTINWKKLF).
T9 chain: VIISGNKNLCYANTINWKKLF

Series [11] concerns the target T10, peptide 8 (CKDTCPPLMLYNPTTYQMDVN).
T10 chain: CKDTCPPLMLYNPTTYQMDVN

Series [12] concerns the target T11, peptide 14 (GPDNCIQCAHYIDGPHCVKTC).
T11 chain: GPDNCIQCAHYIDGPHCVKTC

Series [13] deals with T12, peptide 4 (ENLQIIRGNMYYENSYALAVL).
T12 chain: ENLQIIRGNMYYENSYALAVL

In series [14] the target is T13, peptide 10 (QMDVNPEGKYSFGATCVKK).
T13 chain: QMDVNPEGKYSFGATCVKK

Series [15] has as its target T14, peptide 11 (ATCVKKCPRNYVVTDHGSCVR).
T14 chain: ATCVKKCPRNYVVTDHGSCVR

Series [16] has as its target HisTAG-ΔEGFR N-terminusY88A, P00533.
Series [17] concerns the target T15, peptide 12 (SCVRACGADSYEMEEDGVRKC).
T15 chain: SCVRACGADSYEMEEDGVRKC

In series [18] the target is T16, peptide 15 (MGENNTLVWKYADAGHVCHLC).
T16 chain: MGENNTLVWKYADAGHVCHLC

Series [19] concerns the target T17, peptide 6 (IRGNMYYENSYALAVLSNYDA).
T17 chain: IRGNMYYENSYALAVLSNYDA

B1: GST-MAN2A1-FER (protein)
chain: MKLSRQFTVFGSAIFCVVIFSLYLMLDRGHLDYPRNPRREGSFPQGQLSMLQEKIDHLERLLAENNEIISNIRDSVINLSESVEDGPKSSQSNFSQGAGSHLLPSQLSLSVDTADCLFASQSGSHNSDVQMLDVYSLISFDNPDGGVWKQGFDITYESNEWDTEPLQVFVVPHSHNDPGWLKTFNDYFRDKTQYIFNNMVLKLKEDSRRKFIWSEISYLSKWWDIIDIQKKDAVKSLIENGQLEIVTGGWVMPDEATPHYFALIDQLIEGHQWLENNIGVKPRSGWAIDPFGHSPTMAYLLNRAGLSHMLIQRVHYAVKKHFALHKTLEFFWRQNWDLGSVTDILCHMMPFYSYDIPHTCGPDPKICCQFDFKRLPGGRFGCPWGVPPETIHPGNVQSRARMLLDQYRKKSKLFRTKVLLAPLGDDFRYCEYTEWDLQFKNYQQLFDYMNSQSKFKVKIQFGTLSDFFDALDKADETQRDKGQSMFPVLSGDFFTYADRDDHYWSGYFTSRPFYKRMDRIMESHLRAAEILYYFALRQAHKYKINKFLSSSLYTALTEARRNLGLFQHHDAITGTAKDWVVVDYGTRLFHSLMVLEKIIGNSAFLLILKDKLTYDSYSPDTFLEMDLKQKSQDSLPQKNIIRLSAEPRYLVVYNPLEQDRISLVSVYVSSPTVQVFSASGKPVEVQVSAVWDTANTISETAYEGNFGEVYKGTLKDKTSVAVKTCKEDLPQELKIKFLQEAKILKQYDHPNIVKLIGVCTQRQPVYIIMELVSGGDFLTFLRRKKDELKLKQLVKFSLDAAAGMLYLESKNCIHRDLAARNCLVGENNVLKISDFGMSRQEDGGVYSSSGLKQIPIKWTAPEALNYGRYSSESDVWSFGILLWETFSLGVCPYPGMTNQQAREQVERGYRMSAPQHCPEDISKIMMKCWDYKPENRPKFSELQKELTIIKRKLT
In the case of B1, the “phosphorylation assay on synthetic peptide” value (“phosphorylation assay” for short) in series [1] is given as “only the sequence corresponding to FLKTIQEVAGYVLIALNTVER (peptide 3) in EGFR was phosphorylated by GST-MAN2A1-FER”; in series [2] it was “only the sequence corresponding to FLKTIQEVAGYVLIALNTVER (peptide 3) in EGFR was phosphorylated by GST-MAN2A1-FER”; in [3], “only the sequence corresponding to FLKTIQEVAGYVLIALNTVER (peptide 3) in EGFR was phosphorylated by GST-MAN2A1-FER”; in series [4] it was “only the sequence corresponding to FLKTIQEVAGYVLIALNTVER (peptide 3) in EGFR was phosphorylated by GST-MAN2A1-FER”; in [5], “mutant peptide was not phosphorylated by the fusion protein”; in series [6] it was “only the sequence corresponding to FLKTIQEVAGYVLIALNTVER (peptide 3) in EGFR was phosphorylated by GST-MAN2A1-FER”. The “phosphorylation assay” value in [8], in series [9], in [10], in series [11], in series [12] and in series [13] was “only the sequence corresponding to FLKTIQEVAGYVLIALNTVER (peptide 3) in EGFR was phosphorylated by GST-MAN2A1-FER” in each case. For the same protein, the “phosphorylation assay” value in series [14], in series [15], in [17], in [18] and in [19] was “only the sequence corresponding to FLKTIQEVAGYVLIALNTVER (peptide 3) in EGFR was phosphorylated by GST-MAN2A1-FER” throughout. Besides, the “phosphorylation of HisTAG-ΔEGFR^aa1-650 by GST-MAN2A1-FER with an excessive amount of peptide” value in series [2] was “peptide 3, but not the mutant counterpart, partially blocked the phosphorylation of EGFR N-terminus by GST-MAN2A1-FER”; in [5] it was “peptide 3, but not the mutant counterpart, partially blocked the phosphorylation of EGFR N-terminus by GST-MAN2A1-FER”. Further, the results for the “in vitro kinase assay, phosphorylation of the substrate” value in series [7] and in series [16] were “GST-MAN2A1-FER phosphorylated the recombinant HisTAG-EGFR^aa1-650 in an ATP dosage-dependent manner” and “No phosphorylation was found when Y88 was mutated to alanine in EGFR N-terminus”, respectively.
